Results from article PMC11900225, “Deletions in Glial Fibrillary Acidic Protein Leading to Alterations in Intermediate Filament Assembly and Network Formation” (International Journal of Molecular Sciences, 2025).

Key:
[1] = target: T1, Glial fibrillary acidic protein (GFAP), full-length wild type, human GFAPα (human, UniProt P14136-1 1-432); assay: in vitro filament assembly with negative-stain transmission electron microscopy; 0.2 mg/mL GFAP dialysed stepwise out of 6 M urea into low-salt buffer, then into assembly buffer (10 mM Tris-HCl, 50 mM NaCl, 1 mM DTT, pH 7) at 34–36 °C for 12–16 h; stained with 1% uranyl acetate; mutants alone or coassembled with WT at stated proportions; details: both partners purified
T1 construct: Glial fibrillary acidic protein, major isoform GFAPα, human, full length, cDNA in pET23b; Expressed from pET23b; also called WT GFAP; WT

[2] = target: the molecule itself; assay: high-speed sedimentation assay of assembled filaments; assembly mixture layered on a 0.85 M sucrose cushion in assembly buffer, 80,000 x g, 20 min, 20 °C; supernatant and pellet by SDS-PAGE and Coomassie; efficiency is the percent of total protein in the pellet
[3] = target: the molecule itself; assay: low-speed sedimentation assay of assembled filaments; assembly mixture centrifuged at 1000 x g for 5 min at room temperature; supernatant and pellet by SDS-PAGE and Coomassie; monitors filament aggregation
[4] = target: T1, Glial fibrillary acidic protein (GFAP), …; assay: high-speed sedimentation assay of assembled filaments; assembly mixture layered on a 0.85 M sucrose cushion in assembly buffer, 80,000 x g, 20 min, 20 °C; supernatant and pellet by SDS-PAGE and Coomassie; efficiency is the percent of total protein in the pellet; details: both partners purified

Binder | binding result [1] | binding result [2] | percent in the pellet (low-speed sedimentation) [3] | binding result [4]
ΔEx4 GFAP (natural protein, Expressed from pET23b; no tag named; also called ΔEx4 mutant) not shown | binds | binds | – | –
CΔ92 GFAP (domain or fragment, human, UniProt P14136 1-340, looked up, Human GFAPα with 92 residues deleted from the C-terminus (CΔX is the number of residues deleted from the C-terminus); fragment potentially generated by calpain cleavage at 337SLKD340; Expressed from pET23b; no tag named) MERRRITSAARRSYVSSGEMMVGGLAPGRRLGPGTRLSLARMPPPLPTRVDFSLAGALNAGFKETRASERAEMMELNDRFASYIEKVRFLEQQNKALAAELNQLRAKEPTKLADVYQAELRELRLRLDQLTANSARLEVERDNLAQDLATVRQKLQDETNLRLEAENNLAAYRQEADEATLARLDLERKIESLEEEIRFLRKIHEEEVRELQEQLARQQVHVELDVAKPDLTAALKEIRTQYEAMASSNMHEAEEWYRSKFADLTDAAARNAELLRQAKHEANDYRRQLQSLTCDLESLRGTNESLERQMREQEERHVREAASYQEALARLEEEGQSLKD | – | binds | – | –
ΔEx5 GFAP (natural protein, Human GFAPα with an in-frame deletion of 42 residues, amino acids 261-302 (skipping of exon 5, an Alexander disease splice site mutation); Expressed from pET23b; no tag named; also called ΔEx5 mutant; ΔEx5 deletion mutant) not shown | – | – | 69% | binds
CΔ207 GFAP (domain or fragment, human, UniProt P14136 1-225, looked up, Human GFAPα, the first 225 amino acids; N-terminal fragment produced by caspase-6 cleavage at 222VELD225; Expressed from pET23b; no tag named) MERRRITSAARRSYVSSGEMMVGGLAPGRRLGPGTRLSLARMPPPLPTRVDFSLAGALNAGFKETRASERAEMMELNDRFASYIEKVRFLEQQNKALAAELNQLRAKEPTKLADVYQAELRELRLRLDQLTANSARLEVERDNLAQDLATVRQKLQDETNLRLEAENNLAAYRQEADEATLARLDLERKIESLEEEIRFLRKIHEEEVRELQEQLARQQVHVELD | – | – | 91% | –
CΔ121 GFAP (domain or fragment, human, UniProt P14136 1-311, looked up, Human GFAPα, the initial 311 residues; truncation caused by a nonsense Alexander disease mutation; Expressed from pET23b; no tag named) MERRRITSAARRSYVSSGEMMVGGLAPGRRLGPGTRLSLARMPPPLPTRVDFSLAGALNAGFKETRASERAEMMELNDRFASYIEKVRFLEQQNKALAAELNQLRAKEPTKLADVYQAELRELRLRLDQLTANSARLEVERDNLAQDLATVRQKLQDETNLRLEAENNLAAYRQEADEATLARLDLERKIESLEEEIRFLRKIHEEEVRELQEQLARQQVHVELDVAKPDLTAALKEIRTQYEAMASSNMHEAEEWYRSKFADLTDAAARNAELLRQAKHEANDYRRQLQSLTCDLESLRGTNESLERQMR | – | – | 68% | –
